This is an account of results in paper PMC7708983, “A combined NMR and EPR investigation on the effect of the disordered RGG regions in the structure and the activity of the RRM domain of FUS”.

This data set has as its target FUS165-422 (RGG1-RRM-RGG2) (UniProt P35637 165-422). The data set can be described thus: NMR 1H-15N HSQC chemical shift changes; 1:1 molar ratio; largest shifts near residues 286, 326, 369; 20 mM MES pH 6.5, 150 mM NaCl, RNase free; CW-EPR at room temperature; NMR temperature not given in the material. The settings on record: protein: recombinant; tags: His-MBP tag removed by TEV; hairpin.

Chain of FUS165-422 (RGG1-RRM-RGG2) (P35637 165-422): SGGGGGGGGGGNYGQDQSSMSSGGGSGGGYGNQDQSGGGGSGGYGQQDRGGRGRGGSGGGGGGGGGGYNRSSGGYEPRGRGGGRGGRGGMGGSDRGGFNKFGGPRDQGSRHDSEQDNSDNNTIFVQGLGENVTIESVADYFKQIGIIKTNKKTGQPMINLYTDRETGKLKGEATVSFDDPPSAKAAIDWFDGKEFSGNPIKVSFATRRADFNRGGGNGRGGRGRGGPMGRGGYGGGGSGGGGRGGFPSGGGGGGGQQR

Take GGCAGAUUACAAUUCUAUUUGCC (structured_RNA) [hnRNPA2/B1 stem-loop RNA]: the binding result is reported as “binds”.
